Measurements from patent US20220306750A1 (CITY OF HOPE, published 2022).
Like-named read-outs stand apart in the source and are kept apart here.

Key:
[1] = molecular target: T1, interleukin-1 receptor accessory protein (IL1RAP) on AML target cells (human, UniProt Q9NPH3 21-570); test: cell-based or functional assay
T1 sequence (looked up): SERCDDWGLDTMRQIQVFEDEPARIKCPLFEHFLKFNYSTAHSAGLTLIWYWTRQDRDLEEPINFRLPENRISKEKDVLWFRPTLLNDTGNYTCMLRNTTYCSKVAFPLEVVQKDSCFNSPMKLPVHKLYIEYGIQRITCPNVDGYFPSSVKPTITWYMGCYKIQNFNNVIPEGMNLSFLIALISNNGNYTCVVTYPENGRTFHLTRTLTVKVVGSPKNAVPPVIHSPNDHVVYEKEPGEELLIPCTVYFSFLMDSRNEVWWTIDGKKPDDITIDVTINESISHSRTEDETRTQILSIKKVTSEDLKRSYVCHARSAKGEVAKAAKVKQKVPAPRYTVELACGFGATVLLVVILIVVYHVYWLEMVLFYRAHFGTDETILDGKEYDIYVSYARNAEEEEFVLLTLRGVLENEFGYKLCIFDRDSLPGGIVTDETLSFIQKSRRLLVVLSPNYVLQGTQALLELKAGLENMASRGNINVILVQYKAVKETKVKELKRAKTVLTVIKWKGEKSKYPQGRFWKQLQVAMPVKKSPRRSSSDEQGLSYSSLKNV

[2] = molecular target: T2, interleukin-1 receptor accessory protein (IL1RAP), antigen of the ELISA and phage selection (UniProt Q9NPH3 21-367, limits assumed); test: ELISA, scFv-Fc on IL1RAP
T2 sequence (looked up): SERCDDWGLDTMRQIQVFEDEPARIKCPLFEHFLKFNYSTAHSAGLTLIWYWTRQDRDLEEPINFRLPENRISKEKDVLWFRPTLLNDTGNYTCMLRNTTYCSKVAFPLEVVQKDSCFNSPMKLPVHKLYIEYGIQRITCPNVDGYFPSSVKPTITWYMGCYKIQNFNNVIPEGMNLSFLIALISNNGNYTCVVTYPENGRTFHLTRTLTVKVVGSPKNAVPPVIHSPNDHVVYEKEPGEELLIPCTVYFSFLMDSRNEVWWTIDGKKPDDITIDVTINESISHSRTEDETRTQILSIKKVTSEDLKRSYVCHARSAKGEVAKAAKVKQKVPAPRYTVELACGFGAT

[3] = molecular target: T2, interleukin-1 receptor accessory …; test: ELISA, scFv-Fc on IL1RAP; remark: listed apart in the source

B1: anti-IL1RAP antibody clone 2E12 (Fc fusion)
VH: PGAAAGVGGGLVQPGGSLRLSCEASGFTFSRYWMHWVRQAPGKGLVWVSRIHTDGSSISYADSVKGRFTISRDNAKNTLYLQMNSLRAEDTAVYYCARDIGGGYSYGSVDYWGQGTLVTVSS
VL: QPVLTQSPSVSVAPGKTTRITCGGDNIGSKSVHWFQQKPGQAPVLVVFGGGDRPSGIPERFSGSNSGNTATLIISGVEGGDEADYYCQVWDGSTDHYIFGAGTMVTVL
notes: Tested as scFv-Fc
- cell lysis %-1 [1]: 27.2%
- cell lysis %-2 [1]: 28.7%
- cell lysis %-3 [1]: 23.7%
- cell lysis %-average [1]: 26.5%
- EC50 [2]: 85.4 µg/mL
- EC50 [3]: 854 nM
